According to patent US20250171542A1 (ADEPT THERAPEUTICS, published 2025):

Columns and labels:
[1] = molecular target: T1, CD80 (Sino Biological, Cat #10698-H08H) (UniProt P33681 35-242); experiment: ELISA
T1 sequence (looked up): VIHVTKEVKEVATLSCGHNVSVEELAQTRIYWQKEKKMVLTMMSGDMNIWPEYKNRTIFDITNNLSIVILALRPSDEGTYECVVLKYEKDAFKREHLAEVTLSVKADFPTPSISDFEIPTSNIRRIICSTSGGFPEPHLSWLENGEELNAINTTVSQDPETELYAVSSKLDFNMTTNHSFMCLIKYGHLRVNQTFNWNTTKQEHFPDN

[2] = molecular target: T2, BH-H2 (Sino Biological, Cat #11559-H08H) (UniProt O75144 19-258); experiment: ELISA
T2 sequence (looked up): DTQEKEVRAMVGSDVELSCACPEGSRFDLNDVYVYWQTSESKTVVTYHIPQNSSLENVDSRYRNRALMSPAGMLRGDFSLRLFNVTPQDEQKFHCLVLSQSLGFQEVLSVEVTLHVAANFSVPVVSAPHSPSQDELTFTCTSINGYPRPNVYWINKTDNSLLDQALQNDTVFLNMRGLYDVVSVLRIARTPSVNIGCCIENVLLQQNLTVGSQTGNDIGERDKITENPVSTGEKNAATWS

[3] = molecular target: T3, B7-H3 (Sino Biological, Cat #11188-H08H) (UniProt Q5ZPR3 29-461); experiment: ELISA
T3 sequence (looked up): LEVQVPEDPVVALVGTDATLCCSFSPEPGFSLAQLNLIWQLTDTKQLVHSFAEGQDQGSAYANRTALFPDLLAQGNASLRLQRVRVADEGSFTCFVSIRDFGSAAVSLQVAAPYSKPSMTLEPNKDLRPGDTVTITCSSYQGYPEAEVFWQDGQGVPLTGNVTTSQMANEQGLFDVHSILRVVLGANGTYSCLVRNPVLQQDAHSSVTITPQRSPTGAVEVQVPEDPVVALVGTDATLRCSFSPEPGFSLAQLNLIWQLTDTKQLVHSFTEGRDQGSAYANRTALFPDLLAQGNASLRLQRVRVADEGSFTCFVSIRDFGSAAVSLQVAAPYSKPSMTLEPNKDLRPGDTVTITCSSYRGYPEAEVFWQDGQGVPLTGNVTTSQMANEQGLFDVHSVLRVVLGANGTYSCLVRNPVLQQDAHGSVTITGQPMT

[4] = molecular target: T4, rat PD-L1 (Sino Biological, Cat #80450-R08H) (rat, UniProt D4AE25 19-239); experiment: ELISA
T4 construct: not shown: The vendor's polyhistidine tag

[5] = molecular target: T5, PD-L2 (Sino Biological, Cat #10292-H08H) (UniProt Q9BQ51 20-219); experiment: ELISA
T5 sequence (looked up): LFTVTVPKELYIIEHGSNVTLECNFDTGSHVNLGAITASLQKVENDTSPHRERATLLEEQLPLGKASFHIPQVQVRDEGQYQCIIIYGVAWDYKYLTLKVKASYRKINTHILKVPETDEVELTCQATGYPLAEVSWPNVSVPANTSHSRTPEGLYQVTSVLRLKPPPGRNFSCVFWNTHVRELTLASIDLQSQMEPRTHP

[6] = molecular target: T6, canine PD-L1 (Acro Biosystems, Cat #PDL-C52H4) (canine, UniProt E2RKZ5 19-236); experiment: ELISA
T6 construct: not shown: The vendor's tag, probably a polyhistidine tag
T6 sequence: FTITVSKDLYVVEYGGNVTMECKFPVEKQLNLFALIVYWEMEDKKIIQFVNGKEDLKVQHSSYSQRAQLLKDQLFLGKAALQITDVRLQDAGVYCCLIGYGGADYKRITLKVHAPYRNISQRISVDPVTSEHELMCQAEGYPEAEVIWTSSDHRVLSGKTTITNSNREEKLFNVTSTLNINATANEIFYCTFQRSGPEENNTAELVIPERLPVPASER

[7] = molecular target: mouse PD-L1 (Sino Biological, Cat #50010-M08H) (mouse, UniProt Q9EP73 19-238); experiment: ELISA
[8] = molecular target: T7, CD86 (Sino Biological, Cat #10699-H08H) (UniProt P42081 24-245); experiment: ELISA
T7 sequence (looked up): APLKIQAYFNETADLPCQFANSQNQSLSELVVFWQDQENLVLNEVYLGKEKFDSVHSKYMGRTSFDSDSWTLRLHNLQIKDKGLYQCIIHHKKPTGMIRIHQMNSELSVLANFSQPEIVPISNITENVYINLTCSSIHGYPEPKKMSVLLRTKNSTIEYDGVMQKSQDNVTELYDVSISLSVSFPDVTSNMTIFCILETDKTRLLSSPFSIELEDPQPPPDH

[9] = molecular target: T8, cynomolgus PD-L1-His (Sino Biological, Cat. 90251-C08H) (cynomolgus, UniProt Q9NZQ7 19-238 (human entry)); experiment: BLI (Gator), cynomolgus PD-L1
T8 construct: Bought protein; also called Cyno PD-L1; Cynomolgus PD-L1 ECD-His; not shown: His tag

[10] = molecular target: T9, human PD-L1-His (Sino Biological, Cat #10084-H08H) (human, UniProt Q9NZQ7 19-238); experiment: BLI (Gator), antibody on HFC probe, human PD-L1-His in solution
T9 construct: Bought protein; also called human PD-L1 ECD-His; recombinant human PD-L1-His protein; not shown: His tag
Protocol: The affinity of the binding of the exemplary anti-PD-L1 antibodies of the present disclosure was determined. Assay was performed according to the protocol recommended by Gator or Gator Plus (Gator Bio Inc.). Briefly, human PD-L1-His (Sino Biological, Cat #10084-H08H) was serially diluted 4-fold, starting at 4 μg/ml. After three times of regeneration in generation buffer (Gator Bio, Cat #120012) and neutralization of HFC probe (Gator Bio, Cat #160003), 1 μg/ml of antibody to be tested in Q buffer (Gator Bio, Cat #120010) was immobilized onto HFC probe. After a baseline step, probe immobilized with antibody was dipped into antigen solutions. The association and dissociation of antigen from antibody was measured on BLI machine Gator. Affinity was calculated using Gator Bio analysis software.
Table 22 below summarizes the binding affinity to human PD-L1 using Gator.

mouse PD-L1 (Sino Biological, Cat #50010-M08H), sequence (Q9EP73 19-238 limits assumed, stated change not applied): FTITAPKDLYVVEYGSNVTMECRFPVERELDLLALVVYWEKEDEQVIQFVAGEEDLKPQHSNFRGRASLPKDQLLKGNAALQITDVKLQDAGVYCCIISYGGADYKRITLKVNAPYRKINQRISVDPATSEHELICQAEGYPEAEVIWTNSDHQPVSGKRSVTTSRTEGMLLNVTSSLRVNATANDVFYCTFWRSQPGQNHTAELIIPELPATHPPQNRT
T8 sequence (Q9NZQ7 other isoform, or with tags, fused parts or gaps C08H C08H limits assumed): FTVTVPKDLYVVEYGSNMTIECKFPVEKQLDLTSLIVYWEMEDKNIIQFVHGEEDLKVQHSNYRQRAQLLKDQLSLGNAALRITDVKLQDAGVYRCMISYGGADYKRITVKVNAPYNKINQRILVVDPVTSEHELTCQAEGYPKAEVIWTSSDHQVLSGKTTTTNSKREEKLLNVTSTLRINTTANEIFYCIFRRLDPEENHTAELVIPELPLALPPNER
T4 sequence (D4AE25 entry or part of it R08H R08H limits assumed): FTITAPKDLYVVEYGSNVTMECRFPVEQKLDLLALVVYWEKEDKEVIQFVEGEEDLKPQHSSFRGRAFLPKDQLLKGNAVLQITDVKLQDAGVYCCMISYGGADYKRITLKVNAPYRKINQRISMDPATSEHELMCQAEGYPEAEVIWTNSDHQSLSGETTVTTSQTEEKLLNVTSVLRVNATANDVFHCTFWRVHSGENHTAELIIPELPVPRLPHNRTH
T9 sequence (Q9NZQ7 19-238): as the sequence (Q9NZQ7 other isoform, or with tags, fused parts or gaps C08H C08H limits assumed) above, with T33A, S34A, N62S, Q68R, R82Q, L173F, A185T, I192T, L215H counted along it

B1: 69D10 (antibody, human IgG1, V domains shown)
VH: QEQLEESGGGLVQPEGSLTLTCTASGFSFSGDWYMSWVRQAPGKGLEWIASIYSGSLNTYYATWAKGRFTVSLTSSTTVTLQMTSLTAADTATYFCARRNKNADYGHFDLWGPGTLVTVSS
VL: YDMTQTPASVEVAVGGTVTIKCQASQSIGNALAWYQQKPGQPPKLLIYATSTLASGVPSRFKGSGSGTEFTLTISDLECGDAATYYCQQGWTVSSLDNAFGGGTEVVAK
- binding result [1]: no binding
- binding result [2]: no binding
- binding result [3]: no binding
- binding result [4]: no binding
- binding result [5]: no binding
- binding result [6]: no binding
- binding result [7]: no binding
- binding result [8]: no binding
- Kd [9]: 0.18 nM
- koff [9]: 7.7e-05 s⁻¹
- kon [9]: 428000 M⁻¹ s⁻¹
- Kd [10]: 9.09 nM
- koff [10]: 0.00653 s⁻¹
- kon [10]: 718000 M⁻¹ s⁻¹

B2: 73C8 (antibody, human IgG1, V domains shown)
VH: QEQLEESGGGLVQPEGSLTLTCTVSGFSFSGDYYMSWVRQAPGKGLEWVASIYTGSLNTYYATWAKGRFTISLTSSTTVTLQMTSLTAADTATYFCARRNKNADYGHFDLWGPGTLVTVSS
VL: YDMTQTPASVEVAVGGTVTIKCQASQSINDRLAWYQQKPGQPPKLLIYAASTLASGVPSRFRGSGSGTDFTLTISDLECADAATYYCQQGWTVSSLDNAFGGGTEVVAM
- binding result [1]: no binding
- binding result [2]: no binding
- binding result [3]: no binding
- binding result [4]: no binding
- binding result [5]: no binding
- binding result [6]: no binding
- binding result [7]: no binding
- binding result [8]: no binding
- Kd [9]: ≤ 0.03 nM
- koff [9]: ≤ 1e-05 s⁻¹
- kon [9]: 344000 M⁻¹ s⁻¹
- Kd [10]: 0.12 nM
- koff [10]: 9.39e-05 s⁻¹
- kon [10]: 804000 M⁻¹ s⁻¹

B3: 74A9 (antibody, human IgG1, V domains shown)
VH: QSVEESGGRLVTPGTPLTLTCAVSGFSLSTYALGWVRQAPGKGLEWIGSISIGGATYYASWAKGRFTISKTSTTVDLKIASPTTEDTATYFCARNVDSIYLDAFHTWGPGTLVTVSL
VL: DIVMTQTPASVEAAVGGTVTIKCQASQNIYNNLAWYQQKPGQPPKLLIYRASTLASGVPSRFKGSGSGTEYTLTISDLECDDAATYYCQTYYLTTTTNAFGGGTEVVVK
- binding result [1]: no binding
- binding result [2]: no binding
- binding result [3]: no binding
- binding result [4]: no binding
- binding result [5]: no binding
- binding result [6]: no binding
- binding result [7]: no binding
- binding result [8]: no binding
- Kd [9]: 3.09 nM
- koff [9]: 0.000915 s⁻¹
- kon [9]: 296000 M⁻¹ s⁻¹
- Kd [10]: 0.36 nM
- koff [10]: 0.000234 s⁻¹
- kon [10]: 643000 M⁻¹ s⁻¹

B4: 28B3 (antibody, human IgG1, V domains shown)
VH: QSVEESGGRLVTPGTPLTLSCTASGFSLSSYYMIWVRQAPGKGLEYIGYVYTGSGNTWYASWAKGRFAISKASTTVDLMITSPTTEDTATYFCASGADGVYDWGWDIWGPGTLVTVSL
VL: DIVMTQTPASVEAAVGDTVTIKCQASQSIYSLLAWYQQKPGQRPKLLIAGASNLESGVPSRFSGSGSGTEYTLTISALECADAATYYCQNNYDSGRIYGLAFGGGTEVVVK
- binding result [1]: no binding
- binding result [2]: no binding
- binding result [3]: no binding
- binding result [4]: no binding
- binding result [5]: no binding
- binding result [6]: no binding
- binding result [7]: no binding
- binding result [8]: no binding
- Kd [9]: 0.33 nM
- koff [9]: 0.000132 s⁻¹
- kon [9]: 403000 M⁻¹ s⁻¹
- Kd [10]: 0.09 nM
- koff [10]: 7.6e-05 s⁻¹
- kon [10]: 810000 M⁻¹ s⁻¹

B5: 33E8 (antibody, human IgG1, V domains shown)
VH: QSLEESGGDLVKPGASLTLTCTASGFYFSSGYDMSWVRQAPGKGLEWIASIFTTSGSTWYANWAKGRFTISKTSSTTVTLQMTSLTDADTATYFCTKDGVGSFYMNLWGPGTLVTVSS
VL: LVMTQTPASVEVAVGGTVTIKCQASQTIGSNLAWYQQRPGQPPKLLIYKAFTLASGVSSRFKGSGSGTQFTLTISGVECADAATYYCQQGATRINIDNAFGGGTEVVVK
- binding result [1]: no binding
- binding result [2]: no binding
- binding result [3]: no binding
- binding result [4]: no binding
- binding result [5]: no binding
- binding result [6]: no binding
- binding result [7]: no binding
- binding result [8]: no binding
- Kd [9]: 0.93 nM
- koff [9]: 0.000202 s⁻¹
- kon [9]: 218000 M⁻¹ s⁻¹
- Kd [10]: 1.16 nM
- koff [10]: 0.000418 s⁻¹
- kon [10]: 361000 M⁻¹ s⁻¹

B6: 32E2 (antibody, human IgG1, V domains shown)
VH: QEQLEESGGDLVKPEGSLTLTCTASGFSFSSSYYMSWVRQAPGMGLEWIASISGGVTDNAYYASWAKGRFTVSKTSSTTVTLQLTSLTAADTATYFCARDSSSGYFFLLWGPGTLVTVSS
VL: LVMTQTPSSVSAAVGGTVTINCQASQNIYSNLAWYQQKPGQRPKLLIFGASNLRSGVPSRFKGSGSGTEYTLTISDLECADAATYYCQEGYSIGNVDNPFGGGTEVVVK
- binding result [1]: no binding
- binding result [2]: no binding
- binding result [3]: no binding
- binding result [4]: no binding
- binding result [5]: no binding
- binding result [6]: no binding
- binding result [7]: no binding
- binding result [8]: no binding
- Kd [9]: 0.53 nM
- koff [9]: 7e-05 s⁻¹
- kon [9]: 133000 M⁻¹ s⁻¹
- Kd [10]: 0.31 nM
- koff [10]: 0.000113 s⁻¹
- kon [10]: 371000 M⁻¹ s⁻¹
